Test [1] deals with 6xHis-CtBP (UniProt Q13363). Description: competition assay of the CtBP-E1A interaction (AlphaScreen or fluorescence polarization; not said which).
The target of test [2] is 6xHis-CtBP (UniProt Q13363). The test can be described thus: fluorescence polarization; unlabeled peptide competes with the FITC-labeled 14mer peptide for CtBP. In general terms: In fluorescence polarisation assays a small probe gives low polarisation when free and higher when bound to something large.
The target of test [3] is 6xHis-CtBP (UniProt Q13363). The test can be described thus: competition assay of the CtBP/E1A protein interaction (format not said).
In test [4] the target is 6xHis-CtBP (UniProt Q13363). Description: competition assay of the CtBP/E1A interaction, FIG. 3.

As for Wild-type 14mer E1A peptide …, the half-inhibitory concentration (IC50) (in general, the concentration that inhibits the measured activity by half) was found to be 7.26 µM in the test with 6xHis-CtBP [1], 6 µM in the test with 6xHis-CtBP [2] and 7.26 µM in the test with 6xHis-CtBP [3].

Turning to Tat-E1A-flag (peptide), the IC50 in the test with 6xHis-CtBP [1] stood at 1.7 µM; with 6xHis-CtBP [4] it was 7.7 µM; in the test with 6xHis-CtBP [3], 1.7 µM.

These data come from patent US20160159872A1.
